Reference: the supplement of paper PMC11865577

Test system: TO-N3 (biotin conjugate)
Assay: pull-down binding Z-score (relative to library population); higher = stronger binding
Details: RNA library: Library-2
Method in brief: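 Biotin-conjugated small molecule (100 pmol) on streptavidin beads was incubated with 1 μg of heat-folded Cy5- or Cy3-end-labelled RNA library in phosphate/NaCl/KCl buffer at 25 °C for 60 min. Following three washes, RNA was eluted with hot SDS and hybridised at 55.5 °C for 20 h to a DNA barcode microarray. The binding value is a Z-score computed from the library mean and standard deviation, after subtraction of beads without compound and averaging of barcoded replicate probes with the highest and lowest excluded.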

Point of comparison: GUGAGGCAGGGAGCUGAGCUCAC [hsa-mir-3622a], “pull-down binding Z-score” value 0.698. Against it:
- GUCUUGGGGUGGGGGAUCAAGAC [hsa-mir-642a] — higher, 2.61
- GUGAACAUUGCAU [hsa-mir-4301] — lower, -0.356
- GUGAACCUGAAUUUGCCUUGGGUUUCCU [hsa-mir-670] — lower, 0.262
- GUGACGCCGCGAAGUGCAC [hsa-mir-3147] — lower, 0.406
- GUGAGAGAUGCUUCUAGAUCCAGGAGGCAGACCUCAA [hsa-mir-4325] — higher, 0.822
- GUGAGAUGUUCAUACAAUCCCUCAC [hsa-mir-216a] — lower, -0.852
- GUGAGCGCAGGUCUUUGGCAC [hsa-mir-4450] — lower, 0.339
- GUGAGCUCAGCUCCCUGCCUCAC [hsa-mir-3622b] — lower, 0.138
- GUGAGCUGGAAAUGGGGUGCUAC [hsa-mir-598] — higher, 1.5
- GUGAGGUAUUUUAGUAACAUCAC [hsa-mir-125b-2] — lower, -0.969
- GUGAGUGUCUCUUGUCGC [hsa-mir-1281] — lower, 0.328
- GUGAGUUAGAAAAGCUCAAUUCAC [hsa-mir-4457] — lower, -0.662
- GUGAUAGGAUUUAUCAC [hsa-mir-4999] — lower, -0.436
- GUGAUAGUAAUAAAGUCUCAU [hsa-mir-135a-2] — lower, -0.32
- GUGAUGUGAGGAGCAACAGGCACCCUCCU [hsa-mir-6792] — lower, 0.246
- GUGAUUACAUUAAAACUUAAAAUUUCAC [hsa-mir-4719] — lower, -0.105
- GUGAUUGUCUUCCUCACUCAAUCAG [hsa-mir-4704] — lower, 0.0942
- GUGCACUUCAUUUACGAUGUAG [hsa-mir-1193] — higher, 0.741
- GUGCAGCUUGUACCUGCAC [hsa-mir-1293] — lower, -0.0262
- GUGCUGGCAGUGGCCACGUAA [hsa-mir-4276] — lower, 0.642
- GUGGAACUGACCUGCCCCCUUUCUC [hsa-mir-6817] — lower, 0.517
- GUGGAAUGCAAAGUCCCAC [hsa-mir-5698] — lower, -0.332
- GUGGACAGAGGCAAAACUCUAACUUC [hsa-mir-6078] — lower, 0.0919
- GUGGAGCCAAAAUUAGAAGGGCCAAAAUUCUACCUGGCCCACUACCACAG [hsa-mir-3978] — lower, -0.00817
- GUGGAGGGUGGUGCCGCCGGGGCCGGGCGCUGUUUCAGCUCGCUUCUCCCCCCAC [hsa-mir-1224] — higher, 2.71
- GUGGAGGUAGGCGAGAGUAAUAUAAUUUCUCCAGGAGAACAUCUGAGAGGGGAAGUUGCUUUCCUGCCCUGGCCCUUUCAC [hsa-mir-6076] — higher, 0.735
- GUGGAGUCGGGUCAGACUUCAA [hsa-mir-378c] — lower, -0.0868
- GUGGCCUUGGACAAGCCUCUUGGUUAC [hsa-mir-4672] — lower, -0.141
- GUGGCUAAUCAGCUGAUGGUGCCAC [hsa-mir-4715] — lower, -0.26
- GUGGCUUCAACCAAGUUCAAAGUCAC [hsa-mir-3186] — lower, -0.441
- GUGGCUUGUGGCUGAGUGUCACGCUGC [hsa-mir-6068] — lower, -0.254
- GUGGGUCAAGUUUAGAGAUGCACCAAC [hsa-mir-490] — higher, 1.43
- GUGGGUUGUGAGGACUGAGGCCAGACCCAC [hsa-mir-181d] — lower, -0.139
- GUGGUGGGCACUGCUGGGGUGGGCACAGCAGCCAUGCAGAGCGGGCAUUUGACCCCGUGCCACCCUUUUCCCCAG [hsa-mir-1227] — higher, 3.14
- GUGGUUUCAGGGCAGUGAUGUUGCCCCUCGGAAGAUAACUAU [hsa-let-7b] — lower, -0.128
- GUGUACAGGGAGGAGACUGUACGUGAGAGAUAGUCAGAUCCGCAUGUUAGAGCAGAGUCUCCUUCGUGUACAG [hsa-mir-4441] — lower, -0.184
- GUGUACCUCAUGUGUGUACAC [hsa-mir-5692a-2_5692a-1] — lower, -0.563
- GUGUAGAGGCGGAGCACAG [hsa-mir-1471] — higher, 0.847
- GUGUAGGGGUGGCUACAC [hsa-mir-4717] — lower, 0.346
- GUGUAUGGGCUGAGCCUUGC [hsa-mir-6805] — lower, 0.44
- GUGUCCUGAAAUUCACAGGACUG [hsa-mir-4700] — higher, 0.923
- GUGUCCUUUCUUCUGAGAGCUGGACAC [hsa-mir-6500] — lower, -0.527
- GUGUCGCCCCACGAGGGGGACUGU [hsa-mir-4322] — lower, 0.327
- GUGUCUGGAGACGCCAGGCAGC [hsa-mir-4323] — lower, 0.127
- GUGUCUGGCCCCAGCAGCCCAGACU [hsa-mir-6751] — higher, 0.766
